B3: human DAP-12 expressed on transfected COS cells (other, UniProt O43914 22-113, looked up)
chain: LRPVQAQAQSDCSCSTVSPGVLAGIVMGDLVLTVLIALAVYFLGRLVPRGRGAAEAATRKQRITETESPYQELQGQRSDVYSDLNTQRPYYK
notes: whole, on cells; Negative control transfectant

Assays:
[1] = target: B3; assay: flow cytometry on transfected COS cells
[2] = target: T1, mouse B7-1 on cells (WEHI 231, undifferentiated ES cells) (mouse, UniProt Q00609 38-306); assay: flow cytometry on WEHI 231 cells with blocking anti B7-1 and B7-2 antibodies
T1 construct: whole, on cells; also called CD80
T1 sequence (looked up): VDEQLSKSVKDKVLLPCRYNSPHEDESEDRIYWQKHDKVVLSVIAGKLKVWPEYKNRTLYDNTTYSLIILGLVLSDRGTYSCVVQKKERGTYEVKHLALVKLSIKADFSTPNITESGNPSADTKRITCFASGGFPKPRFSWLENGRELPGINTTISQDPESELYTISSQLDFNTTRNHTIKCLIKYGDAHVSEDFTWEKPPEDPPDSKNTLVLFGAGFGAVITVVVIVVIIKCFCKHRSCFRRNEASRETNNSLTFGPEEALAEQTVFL

[3] = target: T2, mouse B7-2 on WEHI 231 cells (mouse, UniProt P42082 24-309); assay: as above
T2 construct: whole, on cells; also called CD86
T2 sequence (looked up): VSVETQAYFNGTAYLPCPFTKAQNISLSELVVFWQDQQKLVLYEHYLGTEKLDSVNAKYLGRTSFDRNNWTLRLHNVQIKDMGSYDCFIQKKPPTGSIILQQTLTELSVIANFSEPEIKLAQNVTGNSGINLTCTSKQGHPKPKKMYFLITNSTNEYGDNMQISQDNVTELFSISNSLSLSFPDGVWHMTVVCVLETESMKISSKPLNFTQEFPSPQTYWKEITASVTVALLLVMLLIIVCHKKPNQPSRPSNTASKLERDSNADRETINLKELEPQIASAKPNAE

[4] = target: T3, murine GL50-1 (mGL50-1) expressed on transfected COS cells (mouse, UniProt Q9JHJ8 47-322); assay: flow cytometry on transfected COS cells
T3 construct: 322 amino acid protein
T3 sequence: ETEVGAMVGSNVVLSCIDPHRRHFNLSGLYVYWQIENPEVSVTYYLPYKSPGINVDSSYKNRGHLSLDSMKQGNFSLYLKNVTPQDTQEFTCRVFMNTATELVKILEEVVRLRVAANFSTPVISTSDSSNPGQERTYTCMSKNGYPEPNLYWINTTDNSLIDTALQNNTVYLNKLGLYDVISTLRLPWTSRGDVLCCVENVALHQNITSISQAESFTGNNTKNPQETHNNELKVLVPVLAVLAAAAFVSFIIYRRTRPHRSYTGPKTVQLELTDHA

[5] = target: T4, murine GL50-2 (mGL50-2) expressed on transfected COS cells (mouse, UniProt Q9JHJ8 44-320); assay: flow cytometry on transfected COS cells
T4 construct: Alternatively spliced form of 347 residues; also called mGL50-B
T4 sequence: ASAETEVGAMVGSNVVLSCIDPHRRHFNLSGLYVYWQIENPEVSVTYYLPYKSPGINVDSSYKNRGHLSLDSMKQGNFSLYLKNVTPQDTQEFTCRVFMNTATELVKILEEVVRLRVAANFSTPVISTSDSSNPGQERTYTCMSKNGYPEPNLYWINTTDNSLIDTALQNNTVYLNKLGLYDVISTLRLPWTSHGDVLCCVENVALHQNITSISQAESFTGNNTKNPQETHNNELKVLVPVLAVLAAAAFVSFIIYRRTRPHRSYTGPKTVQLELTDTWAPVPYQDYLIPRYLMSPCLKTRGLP

CD28-Ig = target: T5, CD28-Ig (mouse, UniProt P31041 20-150); assay: flow cytometry on transfected COS cells
T5 construct: not shown: Ig part not described
T5 sequence (looked up): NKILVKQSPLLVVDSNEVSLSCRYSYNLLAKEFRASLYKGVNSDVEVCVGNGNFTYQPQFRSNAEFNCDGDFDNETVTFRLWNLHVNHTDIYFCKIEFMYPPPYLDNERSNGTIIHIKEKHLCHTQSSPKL

B1: mICOS-mIgG2am (Fc fusion)
chain: EINGSADHRMFSFHNGGVQISCKYPETVQQLKMRLFREREVLCELTKTKGSGNAVSIKNPMLCLYHLSNNSVSFFLNNPDSSQGSYYFCSLSIFDPPPFQERNLSGGYLHIYESQLCCQLKLEPRGPTIKPCPPCKCPAPNLEGGPSVFIFPPKIKDVLMISLSPIVTCVVVDVSEDDPDVQISWFVNNVEVHTAQTQTHREDYNSTLRVVSALPIQHQDWMSGKAFACAVNNKDLPAPIERTISKPKGSVRAPQVYVLPPPEEEMTKKQVTLTCMVTDFMPEDIYVEWTNNGKTELNYKNTEPVLDSDGSYFMYSKLRVEKKNWVERNSYSCSVVHEGLHNHHTTKSFSRTPGK
notes: Fusion of mouse ICOS with a mouse IgG2a domain mutated to reduce effector function; also called ICOS-Ig; ICOS Ig
**Q.** What does the source list for B1?
**A.** binding result [1]: no binding (tested: 5 µg/ml of fusion protein); binding result [2]: no binding; binding result [3]: no binding

B2: hICOS-mIgG2am (Fc fusion)
chain: EINGSANYEMFIFHNGGVQILCKYPDIVQQFKMQLLKGGQILCDLTKTKGSGNTVSIKSLKFCHSQLSNNSVSFFLYNLDHSHANYYFCNLSIFDPPPFKVTLTGGYLHIYESQLCCQLKFEPRGPTIKPCPPCKCPAPNLEGGPSVFIFPPKIKDVLMISLSPIVTCVVVDVSEDDPDVQISWFVNNVEVHTAQTQTHREDYNSTLRVVSALPIQHQDWMSGKAFACAVNNKDLPAPIERTISKPKGSVRAPQVYVLPPPEEEMTKKQVTLTCMVTDFMPEDIYVEWTNNGKTELNYKNTEPVLDSDGSYFMYSKLRVEKKNWVERNSYSCSVVHEGLHNHHTTKSFSRTPGK
notes: Fusion of human ICOS with the mutated mouse IgG2a domain
**Q.** What does the source list for B2?
**A.** binding result [4]: binds; binding result [5]: binds

**Q.** Does B3 bind (CD28-Ig)?
**A.** Result: no binding (tested: 5 µg/ml of fusion protein)

— US20040054158A1 (GENETICS INSTITUTE, published 2004)
